Reference: patent US20140221271A1
Like-named read-outs stand apart in the source and are kept apart here.

Columns and labels:
Kv1.3 K+ ion channel [1] = assay: cell-based or functional assay
Kv1.3 K+ ion channel [2] = assay: cell-based or functional assay; remark: listed apart in the source

Molecule	IC50, reduction in peak whole-cell Kv1.3 current at 40 mV (patch-clamp) (Kv1.3 K+ ion channel [1]) [nM]	IC50, reduction in peak whole-cell Kv1.3 current at 40 mV (patch-clamp) (Kv1.3 K+ ion channel [2]) [nM]
ShK-186 ((phospho-Tyr)-AEEA-ShK-NH2) (peptide)	0.069	
RSCIDTIPKSRCTAFQCKHSMKYRLSFCRKTCGTC (modifications not checked) [ShK-221-gadolinium (DOTA-conjugate of ShK-198 coordinated with gadolinium)]		0.0582
RSCIDTIPKSRCTAFQCKHSMKYRLSFCRKTCGTC (modifications not checked) [ShK-221-indium (DOTA-conjugate of ShK-198 coordinated with indium)]		0.0638
